Test results taken from patent US20250011433A1 (GLIKNIK, published 2025).
Residue numbers refer to the chain shown, from its start. Names and notes keep the numbering of the source.

T1: FcγRIIb (UniProt P31994 46-217, limits assumed)
T1 sequence (looked up): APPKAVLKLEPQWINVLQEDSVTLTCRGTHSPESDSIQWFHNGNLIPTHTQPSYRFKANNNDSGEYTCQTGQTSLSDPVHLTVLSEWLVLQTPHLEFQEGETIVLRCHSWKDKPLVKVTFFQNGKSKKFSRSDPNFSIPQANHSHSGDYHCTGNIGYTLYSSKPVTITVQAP

B1: G1032 (Fc fusion)
chain: EPKSCDKTHTCPPCPAPEAAGGPSVFLFPPKPKDTLMISRTPEVTCVVVDVEFEDPEVKFNWYVDGVEVHNAKTKPREEQYNSTYRVVSVLTVLHQDWLNGKEYKCKVTNKALPAPIEKTISKAKGQPREPQVYTLPPSRDELTKNQVSLTCLVKGFYPSDIAVEWESNGQPENNYKTTPPVLDSDGSFFLYSKLTVDKSRWQQGNVFSCSVMHEALHNHYTQKSLSLSPGKERKCCVECPPCP
notes: G045c background, L234A/L235A/S267E/H268F/S324T; leader 1-20 cleaved
B2: G997 (Fc fusion)
chain: B1 chain with A19L, A20L
notes: G045c background, S267E/H268F/S324T; leader 1-20 cleaved
B3: G1003 (Fc fusion)
chain: ERKCCVECPPCPEPKSCDKTHTCPPCPAPELLGGPSVFLFPPKPKDTLMISRTPEVTCVVVDVEFEDPEVKFNWYVDGVEVHNAKTKPREEQYNSTYRVVSVLTVLHQDWLNGKEYKCKVTNKALPAPIEKTISKAKGQPREPQVYTLPPSREEMTKNQVSLTCLVKGFYPSDIAVEWESNGQPENNYKTTPPVLDSDGSFFLYSKLTVDKSRWQQGNVFSCSVMHEALHNHYTQKSLSLSPGK
notes: G019 background, S267E/H268F/S324T; leader 1-20 cleaved
B4: G1049 (Fc fusion)
chain: B3 chain with L125F, E153D, M155L
notes: G019 background, S267E/H268F/S324T/L328F; leader 1-20 cleaved
B5: G1122 (Fc fusion)
chain: B1 chain with E18P, A19L, A20L, G21H, E52Q
notes: G045c background, E233P/G236H/S267Q/H268F/S324T; leader 1-20 cleaved
B6: G1107 (Fc fusion)
chain: B1 chain with A19L, A20L, E52H, T84A
notes: G045c background, S267H/H268F/S324T/T299A; leader 1-20 cleaved
B7: G1114 (Fc fusion)
chain: B1 chain with E18P, A19L, A20L, G21Q, E52D
notes: G045c background, E233P/G236Q/S267D/H268F/S324T; leader 1-20 cleaved
B8: G1103 (Fc fusion)
chain: B1 chain with E18P, A19L, A20L, G21E, E52S
notes: G045c background, E233P/G236E/H268F/S324T; leader 1-20 cleaved
B9: G1104 (Fc fusion)
chain: B1 chain with E18P, A19L, A20L, G21D, E52S
notes: G045c background, E233P/G236D/H268F/S324T; leader 1-20 cleaved
B10: G1129 (Fc fusion)
chain: B1 chain with E18P, A19L, A20L, G21N
notes: G045c background, E233P/G236N/S267E/H268F/S324T; leader 1-20 cleaved
B11: G1102 (Fc fusion)
chain: B1 chain with E18P, A19L, A20L, E52Q
notes: G045c background, E233P/S267Q/H268F/S324T; leader 1-20 cleaved
B12: G1125 (Fc fusion)
chain: B1 chain with E18P, A19L, A20L, E52H
notes: G045c background, E233P/S267H/H268F/S324T; leader 1-20 cleaved
B13: G1070 (Fc fusion)
chain: B1 chain with A19L, A20L, E52K, N82A
notes: G045c background, S267K/H268F/S324T/N297A; leader 1-20 cleaved
B14: G1084 (Fc fusion)
chain: B1 chain with E18P, A19L, A20L, E52K
notes: G045c background, E233P/S267K/H268F/S324T; leader 1-20 cleaved
B15: G1088 (Fc fusion)
chain: B1 chain with E18P, A19L, A20L, G21Q, E52S
notes: G045c background, E233P/G236Q/H268F/S324T; leader 1-20 cleaved
B16: G1110 (Fc fusion)
chain: B1 chain with E18P, A19L, A20L, G21D, E52R
notes: G045c background, E233P/G236D/S267R/H268F/S324T; leader 1-20 cleaved
B17: G1111 (Fc fusion)
chain: B1 chain with E18P, A19L, A20L, G21D, E52Q
notes: G045c background, E233P/G236D/S267Q/H268F/S324T; leader 1-20 cleaved
B18: G1112 (Fc fusion)
chain: B1 chain with E18P, A19L, A20L, G21R, E52R
notes: G045c background, E233P/G236R/S267R/H268F/S324T; leader 1-20 cleaved
B19: G1117 (Fc fusion)
chain: B1 chain with E18P, A19L, A20L, G21D, E52D
notes: G045c background, E233P/G236D/S267D/H268F/S324T; leader 1-20 cleaved
B20: G1101 (Fc fusion)
chain: B1 chain with E18P, A19L, A20L, E52D
notes: G045c background, E233P/S267D/H268F/S324T; leader 1-20 cleaved
B21: G1096 (Fc fusion)
chain: B1 chain with A19L, A20L, E52R, T84A
notes: G045c background, S267R/H268F/S324T/T299A; leader 1-20 cleaved
B22: G1094 (Fc fusion)
chain: B1 chain with A19L, A20L, E52Q, T84A
notes: G045c background, S267Q/H268F/S324T/T299A; leader 1-20 cleaved
B23: G1116 (Fc fusion)
chain: B1 chain with E18P, A19L, A20L, G21H, E52K
notes: G045c background, E233P/G236H/S267K/H268F/S324T; leader 1-20 cleaved
B24: G1131 (Fc fusion)
chain: B1 chain with E18P, A19L, A20L, G21R, E52N
notes: G045c background, E233P/G236R/S267N/H268F/S324T; leader 1-20 cleaved
B25: G1093 (Fc fusion)
chain: B1 chain with A19L, A20L, E52K, T84A
notes: G045c background, S267K/H268F/S324T/T299A; leader 1-20 cleaved
B26: G1105 (Fc fusion)
chain: B1 chain with E18P, A19L, A20L, G21N, E52S
notes: G045c background, E233P/G236N/H268F/S324T; leader 1-20 cleaved
B27: G1115 (Fc fusion)
chain: B1 chain with E18P, A19L, A20L, G21E, E52R
notes: G045c background, E233P/G236E/S267R/H268F/S324T; leader 1-20 cleaved
B28: G1095 (Fc fusion)
chain: B1 chain with A19L, A20L, E52N, T84A
notes: G045c background, S267N/H268F/S324T/T299A; leader 1-20 cleaved
B29: G1100 (Fc fusion)
chain: B1 chain with E18P, A19L, A20L, E52R
notes: G045c background, E233P/S267R/H268F/S324T; leader 1-20 cleaved
B30: G1108 (Fc fusion)
chain: B1 chain with E18P, A19L, A20L, E52N
notes: G045c background, E233P/S267N/H268F/S324T; leader 1-20 cleaved

target: T2, FcγRI (UniProt P12314 16-288); assay: BLI (Octet)
T2 construct: also called CD64
Description: (§1) Binding of complement-preferential stradomers or parent stradomer G045c to FcγRI, FcγRIIb, FcγRIIIa, FcγRIIa, or FcRn was assessed. RU values of dissociation were measured by biolayer interferometry using a ForteBio Octet instrument. His-tagged receptor proteins were bound to the sensor tip in 1× kinetic analysis buffer from ForteBio after which the on rate of the receptor/protein was measured by transferring the sensor tip to a 1× kinetics buffer containing the purified stradomer of choice. Off rate was measured by transferring the sensor tip to a 1× kinetics buffer, and RU value was calculated from the measured maximum binding using the ForteBio software. Biolayer interferometry detects the binding between a ligand immobilized on the biosensor tip surface and an analyte in solution. When binding occurs it produces an increase in optical thickness at the biosensor tip, which results in a wavelength shift (detected as a response unit of “RU”). The maximum binding level (RU max) is the maximum possible amount of sample binding at equilibrium that saturates the amount of ligand on the sensor surface. The RU 300 is the residual sample binding after 300 seconds of dissociation and is useful to characterize the rate of dissociation of the test article from the test ligand.

T2 sequence (P12314 16-288 limits assumed): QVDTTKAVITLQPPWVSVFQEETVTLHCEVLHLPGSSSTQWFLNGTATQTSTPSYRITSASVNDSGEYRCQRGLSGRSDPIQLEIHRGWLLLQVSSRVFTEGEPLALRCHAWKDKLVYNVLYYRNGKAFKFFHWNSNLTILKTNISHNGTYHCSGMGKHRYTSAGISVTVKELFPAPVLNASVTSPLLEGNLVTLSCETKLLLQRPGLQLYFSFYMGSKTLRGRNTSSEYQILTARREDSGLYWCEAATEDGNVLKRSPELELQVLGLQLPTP

| binding result | Binder |
| --- | --- |
| binds | B1 |
| binds | B2 |
| binds | B3 |
| binds | B4 |

target: T1, FcγRIIb; assay: BLI (Octet)
Description: as §1

| binding result | Binder |
| --- | --- |
| binds | B1 |
| binds | B2 |
| binds | B3 |
| binds | B4 |

target: T2, FcγRI; assay: BLI (Octet); remark: another data set of the same source
Description: as §1
(§2) For each stradomer in Tables 5-9, the level of canonical FcγR binding, complement C1q binding, and CDC inhibition were determined according to the methods described in Example 1.

| binding result | Binder |
| --- | --- |
| binds | B5 |
| binds | B6 |
| binds | B7 |
| binds | B8 |
| binds | B9 |
| binds | B10 |
| binds | B11 |
| binds | B12 |
| binds | B13 |
| binds | B14 |
| binds | B15 |
| binds | B16 |
| binds | B17 |
| binds | B18 |
| binds | B19 |
| binds | B20 |
| binds | B21 |
| binds | B22 |
| binds | B23 |
| binds | B24 |
| binds | B25 |
| binds | B26 |
| binds | B27 |
| binds | B28 |
| binds | B29 |
| binds | B30 |

target: T1, FcγRIIb; assay: BLI (Octet); remark: another data set of the same source
Description: as §1, §2

| binding result | Binder |
| --- | --- |
| binds | B5 |
| binds | B6 |
| binds | B7 |
| binds | B8 |
| binds | B9 |
| binds | B10 |
| binds | B11 |
| binds | B12 |
| binds | B15 |
| binds | B17 |
| binds | B19 |
| binds | B20 |
| binds | B22 |
| binds | B26 |
| binds | B28 |
| binds | B30 |

target: T3, C1q (UniProt P02745 23-245; P02746 28-253; P02747 29-245); assay: ELISA on coated C1q
T3 construct: bought C1q coated on ELISA plates at 1 µg/ml; also called complement C1q; complement factor C1q
Description: (§3) For C1q binding, 96 well plates were coated with C1q (Sigma Cat #: C1740 1 μg/ml) overnight in PBS. After coating, plates were washed 3 times with standard wash buffer (iX PBS+0.05% Tween 20) and blocked with blocking buffer (1% BSA+1× PBS+0.05% Tween 20) for 2 hours at RT. Following blocking, plates were incubated with compound diluted in blocking buffer 100 μL/well and washed 3 times with standard washing buffer. C1q-bound compound was detected by incubation with 1:5000 biotinylated mouse anti-human IgG1(Cat #555869, BD Biosciences) and Streptavidin-HRP (Cat #: 7100-05 Southern Biotech) (100 μl/well) for 1 hour at room temperature followed by washing 3 times with washing buffer, after which color was developed using the standard TMB method according to manufacturer's protocol for 15 minutes. Absorbance was read at 450 nm.

T3 sequence (P02745 23-245 limits assumed, chain 1 of 3): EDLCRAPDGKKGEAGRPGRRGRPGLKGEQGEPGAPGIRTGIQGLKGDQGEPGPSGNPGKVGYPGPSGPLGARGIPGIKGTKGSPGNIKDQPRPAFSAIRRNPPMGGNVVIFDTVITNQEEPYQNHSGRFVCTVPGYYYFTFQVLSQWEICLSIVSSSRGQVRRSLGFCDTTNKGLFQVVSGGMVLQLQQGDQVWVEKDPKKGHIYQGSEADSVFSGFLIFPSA
T3 sequence (P02746 28-253 limits assumed, chain 2 of 3): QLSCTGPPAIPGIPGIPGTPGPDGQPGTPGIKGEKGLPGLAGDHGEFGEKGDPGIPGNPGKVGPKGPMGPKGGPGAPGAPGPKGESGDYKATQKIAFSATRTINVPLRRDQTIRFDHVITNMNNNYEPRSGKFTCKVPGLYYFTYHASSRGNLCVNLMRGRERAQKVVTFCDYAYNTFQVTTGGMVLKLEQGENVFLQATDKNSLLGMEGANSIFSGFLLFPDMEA
T3 sequence (P02747 29-245 limits assumed, chain 3 of 3): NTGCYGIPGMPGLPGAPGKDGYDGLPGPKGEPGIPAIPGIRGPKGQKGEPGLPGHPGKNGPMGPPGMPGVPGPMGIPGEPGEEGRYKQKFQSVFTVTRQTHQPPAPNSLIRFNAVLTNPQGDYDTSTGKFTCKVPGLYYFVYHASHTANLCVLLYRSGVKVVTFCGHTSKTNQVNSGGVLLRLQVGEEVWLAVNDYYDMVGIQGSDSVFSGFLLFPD

| binding result | Binder |
| --- | --- |
| binds | B1 |
| binds | B2 |
| binds | B3 |
| binds | B4 |

target: T3, C1q; assay: ELISA on coated C1q; remark: another data set of the same source
Description: as §3, §2

| binding result | Binder |
| --- | --- |
| binds | B13 |
| binds | B14 |
| binds | B18 |
| binds | B21 |
| binds | B23 |
| binds | B25 |
| binds | B29 |

target: T3, C1q; assay: cell-based or functional assay

| CDC Inhibition (EC50, µg/mL) [µg/mL] | Binder |
| --- | --- |
| 5 | B5 |
| 12.5 | B6 |
| 5 | B7 |
| 5 | B8 |
| 5 | B9 |
| 5 | B10 |
| 7.5 | B11 |
| 5 | B12 |
| 5 | B15 |
| 25 | B16 |
| 5 | B17 |
| 5 | B19 |
| 5 | B20 |
| 12.5 | B22 |
| 15 | B24 |
| 5 | B26 |
| 50 | B27 |
| 15 | B28 |
| 5 | B30 |
